Reference: PMC6378094

Substrate: NC(=O)C[C@H](N)C(=O)O
Test: purified protein
Conditions: 50 mM Tris-HCl, pH 8.6, 37 °C

Protein	Km	kcat	kcat/Km
ASPase E (Leunase) (Escherichia coli K-12) (protein) LPNITILATGGTIAGGGDSATKSNYTVGKVGVENLVNAVPQLKDIANVKGEQVVNIGSQDMNDNVWLTLAKKINTDCDKTDGFVITHGTDTMEETAYFLDLTVKCDKPVVMVGAMRPSTSMSADGPFNLYNAVVTAADKASANRGVLVVMNDTVLDGRDVTKTNTTDVATFKSVNYGPLGYIHNGKIDYQRTPARKHTSDTPFDVSKLNELPKVGIVYNYANASDLPAKALVDAGYDGIVSAGVGNGNLYKSVFDTLATAAKTGTAVVRSSRVPTGATTQDAEVDDAKYGFVASGTLNPQKARVLLQLALTQTKDPQQIQQIFNQY	5.788 µM	7.73 s⁻¹	1.34e+06 M⁻¹ s⁻¹
ASPase A1 (Bacillus licheniformis) (protein) MNKKVALITTGGTIASRKTESGRLAAGAISGPELAEMCSLPEDVQIDVYPAFQLPSMHITFEHLLELKQTIERVFQNGGYDGAVVTHGTDTLEETAYFLDLTIEDERPVVVTGSQRAPEQQGTDAYTNIRHAVYTACSPDIKGAGTVVVFNERIFNARYVKKVHASNLQGFDVFGFGYLGIIDNDKVYVYQKPLKRDVHQLQRPLPAVDIVKCYLDGDGKFIRAAVREGVEGIVLEGVGRGQVPPNMMADIEQALNQGVYIVITTSAEEGEVYTTYDYAGSSYDLAKKGVILGKDYDSKKARMKLAVLLASYKEGLKDKFCY	10.30 µM	24 s⁻¹	2.33e+06 M⁻¹ s⁻¹
